Km and kcat data for 1 protein are collected here from publication PMC2929593.

What all share (assay): DTNB continuous spectrophotometric thioesterase assay
Holding throughout (type): biochemical, Escherichia coli
Settings in all cases: pH 7.5, 25 °C

Substrate in data set [1]: CC(=O)SCCNC(=O)CCNC(=O)[C@H](O)C(C)(C)COP(=O)(O)OP(=O)(O)OC[C@H]1O[C@@H](n2cnc3c(N)ncnc32)[C@H](O)[C@@H]1OP(=O)(O)O
Substrate in data set [2]: CC(C)(COP(=O)(O)OP(=O)(O)OC[C@H]1O[C@@H](n2cnc3c(N)ncnc32)[C@H](O)[C@@H]1OP(=O)(O)O)[C@@H](O)C(=O)NCCC(=O)NCCSC(=O)Cc1cccc(O)c1
Substrate in data set [3]: CC(C)(COP(=O)(O)OP(=O)(O)OC[C@H]1O[C@@H](n2cnc3c(N)ncnc32)[C@H](O)[C@@H]1OP(=O)(O)O)[C@@H](O)C(=O)NCCC(=O)NCCSC(=O)c1ccc(O)cc1
Substrate in data set [4]: CC(C)(COP(=O)(O)OP(=O)(O)OC[C@H]1O[C@@H](n2cnc3c(N)ncnc32)[C@H](O)[C@@H]1OP(=O)(O)O)[C@@H](O)C(=O)NCCC(=O)NCCSC(=O)c1cccc(O)c1
Substrate in data set [5]: CCC(=O)SCCNC(=O)CCNC(=O)[C@H](O)C(C)(C)COP(=O)(O)OP(=O)(O)OC[C@H]1O[C@@H](n2cnc3c(N)ncnc32)[C@H](O)[C@@H]1OP(=O)(O)O
Substrate in data set [6]: CCCCCC(=O)SCCNC(=O)CCNC(=O)[C@H](O)C(C)(C)COP(=O)(O)OP(=O)(O)OC[C@H]1O[C@@H](n2cnc3c(N)ncnc32)[C@H](O)[C@@H]1OP(=O)(O)O
Substrate in data set [7]: CCCCCCCCCC(=O)SCCNC(=O)CCNC(=O)[C@H](O)C(C)(C)COP(=O)(O)OP(=O)(O)OC[C@H]1O[C@@H](n2cnc3c(N)ncnc32)[C@H](O)[C@@H]1OP(=O)(O)O
Substrate in data set [8]: CCCCCCCCCCCC(=O)SCCNC(=O)CCNC(=O)[C@H](O)C(C)(C)COP(=O)(O)OP(=O)(O)OC[C@H]1O[C@@H](n2cnc3c(N)ncnc32)[C@H](O)[C@@H]1OP(=O)(O)O
Substrate in data set [9]: CCCCCCCCCCCCCCCC(=O)SCCNC(=O)CCNC(=O)[C@H](O)C(C)(C)COP(=O)(O)OP(=O)(O)OC[C@H]1O[C@@H](n2cnc3c(N)ncnc32)[C@H](O)[C@@H]1OP(=O)(O)O

B1: EntH (Escherichia coli K-12) (protein)
chain: MIWKRHLTLDELNATSDNTMVAHLGIVYTRLGDDVLEAEMPVDTRTHQPFGLLHGGASAALAETLGSMAGFMMTRDGQCVVGTELNATHHRPVSEGKVRGVCQPLHLGRQNQSWEIVVFDEQGRRCCTCRLGTAVLG
With B1, the Km amounted to 800 ± 90 µM in [1]; 37 ± 1 µM in [2]; 21 ± 2 µM in data set [3]; 35 ± 1 µM in data set [4]; 400 ± 40 µM in data set [5]; 350 ± 90 µM in data set [6]. Further, the Michaelis-Menten constant (Km) in [7] stood at 49 ± 3 µM; in data set [8] it was 45 ± 2 µM; in data set [9], 55 ± 9 µM. Further, the turnover number (kcat) in data set [1] stood at 0.0044 ± 0.0002 s⁻¹; in data set [2] it was 2.1 ± 0.5 s⁻¹; in data set [3] it was 1.55 ± 0.05 s⁻¹; in [4], 1.21 ± 0.01 s⁻¹; in data set [5] it was 0.0125 ± 0.0006 s⁻¹; in [6], 0.058 ± 0.001 s⁻¹. The kcat was found to be 0.0267 ± 0.0004 s⁻¹ in data set [7], 0.0281 ± 0.0003 s⁻¹ in data set [8] and 0.085 ± 0.004 s⁻¹ in data set [9].

The term Km denotes the concentration of substrate that gives half-maximal velocity. In general, kcat refers to the maximal rate divided by the concentration of active sites.
